Test results as given in the supplement of paper PMC7125110.
± gives the standard error. This sample holds only a part of the variants without activity.

B1: glmS ribozyme (parent)
chain: AUAAAAGCGCCAGAACUACAGAAAUGUAGUUGACGAGGAGGAGGUUUAUCGAAUUUUCGGCGGAUGCCUCCAAA

Assays:
Settings in all cases: with glucosamine-6-phosphate
glucosamine-6-phosphate [1] = variants of: B1; assay: self-cleavage kobs at 640 uM GlcN6P; higher = faster cleavage; RNA array
Summary of the method: (§1)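 Barcoded ribozyme variants on sequenced MiSeq chips were transcribed in situ by E. coli RNA polymerase and followed at 37 °C through a hybridised Cy3 probe. Glucosamine-6-phosphate at 40 μM to 10 mM in HEPES/KCl/Mg(OAc)2 buffer was flowed in, and tiles were imaged over ~14 h. Signals were normalised to baseline and to non-cleaving reference variants, and per-tile medians were fit to one- or two-exponential decays to give kobs. Weighted Michaelis–Menten fits across concentrations gave kcat and KM.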

glucosamine-6-phosphate [2] = variants of: B1; assay: self-cleavage kobs at 2500 uM GlcN6P; higher = faster cleavage; RNA array
Summary of the method: as §1

glucosamine-6-phosphate [3] = variants of: B1; assay: self-cleavage kobs at 10000 uM GlcN6P; higher = faster cleavage; RNA array
Summary of the method: as §1

Variant	self-cleavage kobs at 640 uM GlcN6P (glucosamine-6-phosphate [1]) [s⁻¹]	self-cleavage kobs at 2500 uM GlcN6P (glucosamine-6-phosphate [2]) [s⁻¹]	self-cleavage kobs at 10000 uM GlcN6P (glucosamine-6-phosphate [3]) [s⁻¹]
A33G A52G U65G	< 1e-05	< 1e-05	
G9C A53U C70A	< 1e-05		
A6U A15U G40U G43C	< 1e-05		
A12G G43A U46G U69G	< 1e-05	< 1e-05	
A6C U47C U54G	< 1e-05		
C11A U46G C61G	< 1e-05	< 1e-05	
A33G G38U U65A C70G	7.69e-05 ± 2.1e-05		
A6G A14C G38U	< 1e-05		< 1e-05
A12U A48C	0.000142 ± 2.1e-05	0.000341 ± 5.1e-05	
A14C U56G C68A	9.34e-05 ± 3.4e-05	8.68e-05 ± 2.2e-05	
A6U G13U G37U A48U U69G	9.26e-05 ± 2.7e-05		
A14G U30G A64G	0.00462 ± 0.0017	0.00995 ± 0.0044	
A48G C50U A52U C70G	4.03e-05 ± 2e-05		
U31C G41A A48U C67G	< 1e-05	< 1e-05	
U55A C67A C68U	8.42e-05 ± 2.6e-05	0.000218 ± 4e-05	0.000108 ± 2.8e-05
G32A G40U A48U	< 1e-05		

Variant	self-cleavage kobs at 640 uM GlcN6P (glucosamine-6-phosphate [1]) [s⁻¹]	self-cleavage kobs at 2500 uM GlcN6P (glucosamine-6-phosphate [2]) [s⁻¹]	self-cleavage kobs at 10000 uM GlcN6P (glucosamine-6-phosphate [3]) [s⁻¹]
A14C U69C C71U	4.76e-05 ± 8.5e-06	0.000131 ± 1.4e-05	
G7A C8A G9A G62A	< 1e-05		< 1e-05
G29A U45C U46G A53C C67G U69G	< 1e-05	< 1e-05	
G38U G41A U47C	< 1e-05	< 1e-05	
C8U A15C G32U	< 1e-05	< 1e-05	
A6U A39C G60A	< 1e-05		
G7A C11G G40U	< 1e-05		
G38C A42G U49G A52G G63C	< 1e-05	< 1e-05	
G32U A36U G62U	< 1e-05		
C11U A12C U31G G32U U57G	< 1e-05		
G9C G43U U55G A64G	< 1e-05	< 1e-05	
U31C G66A C68A U69G	7.97e-05 ± 4e-05	4.91e-05 ± 1.6e-05	
G40C G41A G43U	< 1e-05		
A39U G43C G44A G51U	< 1e-05	< 1e-05	
A12G G29U G37C	< 1e-05	< 1e-05	
G29U A36U A39G G60A	< 1e-05		
